From patent publication US20160060347A1 (MorphoSys, published 2016) come the findings set out here.

Where no end group is shown, it is not given here.

Assay [1] has as its target T1, human CXCR2 (human, UniProt P25025 1-360).
T1 construct: Expressed on Flp-In CHO cells (FACS, Fab-ZAP, ADCC, CDC) or on bought PathHunter CHO cells (beta-arrestin assay); the construct in the PathHunter cells is not described; also called chemokine receptor CXCR2; CXCR2 CHO Flp-In cells
T1 sequence: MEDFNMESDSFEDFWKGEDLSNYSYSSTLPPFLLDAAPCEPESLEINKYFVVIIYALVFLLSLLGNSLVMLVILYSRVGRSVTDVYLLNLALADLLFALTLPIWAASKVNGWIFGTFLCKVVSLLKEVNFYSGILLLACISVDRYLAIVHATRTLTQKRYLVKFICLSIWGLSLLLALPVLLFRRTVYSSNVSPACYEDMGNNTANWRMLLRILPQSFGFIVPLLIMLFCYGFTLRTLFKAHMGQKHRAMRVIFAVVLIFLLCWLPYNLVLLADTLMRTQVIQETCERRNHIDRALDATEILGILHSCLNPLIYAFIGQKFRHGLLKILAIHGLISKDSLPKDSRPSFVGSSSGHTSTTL
Nature of the assay: FACS, CXCR2 Flp-In CHO cells, IgG1. On the procedure:
(§1) Human CXCR2-expressing Flp-In™ CHO cells were harvested at ˜80% confluence washed once with PBS (Gibco, Cat #14190-094) and detached using Versene (Invitrogen, Cat #15040-033). Subsequently, cells were counted and centrifuged at 250×g for 5 min at 4° C. Afterwards, cells were diluted in Superblock (Thermo Fisher Perbio Science, Cat #37515) to a cell concentration of 2E+05-1E+06/mL and 100 μL/well were transferred to 96-well microtiter plate (Nunc, Cat#163320). Cells were once centrifuged, supernatant discarded and antibodies added at 1 μg/mL (unless stated otherwise), incubated for 1 h at 4° C. and washed twice with FACS buffer (PBS/3% FCS/0.02% NaN3). Binding of anti-CXCR2 antibodies was detected by incubation of Phycoerythrin-conjugated anti-human IgG (Dianova, Cat #109-116-097) for 1 h at 4° C. Samples were subsequently measured using FACS Array (Becton Dickinson).
All six Fabs were converted into IgG1 format and were expressed in a human cell line and purified via protein A chromatography for further analysis. All antibodies were tested for specific CXCR2 binding on CXCR2-expressing CHO Flp-In™ cells by FACS. Additionally, inhibition of CXCR2 mediated beta-arrestin signaling by the antibodies was analyzed. Furthermore, IC₅₀ concentrations for cytotoxicity of respective antibodies via secondary immunotoxin in a Fab-ZAP assay using CXCR2 expressing CHO Flp-In™ cells were determined together with the capability of the antibodies to induce complement-dependent cellular cytotoxicity (CDC) and antibody-dependent cellular toxicity (ADCC). Respective experimental settings as outlined in Example 3 were used (data of one representative experiment are shown).

Assay [2] deals with T2, peptide derived of extracellular domain three (human, coupled to a carrier protein (BSA or transferrin, not stated which)).
T2 construct: also called ECL3 peptide
T2 peptide: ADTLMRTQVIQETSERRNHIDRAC
As to the kind of experiment: ELISA, Fab. On the procedure: (§2) 384-well Maxisorp plates (Nunc; Cat. #460518) were coated with respective CXCR2 and control peptides coupled either to BSA or Transferrin (TRF) at 1-5 μg/mL and incubated o/n at 4° C. […] After three washing steps, antibodies were added at 5-10 μg/mL and titrated in some experiments. Antibodies were incubated 1 h at room temperature and plates were subsequently washed. Binding of anti-CXCR2 antibodies was detected by using alkaline phosphatase-conjugated anti-human IgG, (Dianova, Cat #109-055-097). AttoPhos fluorescence substrate (Roche, Cat #1484281) was added according to instructions of the manufacturer and fluorescence was measured (excitation at 430 nm, emission at 535 nm) using a microplate reader.
(§3) The Fabs were further tested including affinity determination via BiaCore, EC₅₀ determination in ELISA and FACS, as well as the evaluation of cellular cytotoxicity via secondary immunotoxin (Saporin) upon antibody internalization (Fab-ZAP). Respective experimental settings as outlined in Example 3 were used.
In general terms: ELISA stands for enzyme-linked immunosorbent assay.

Assay [3] has as its target T3, hu_CXCR2_N-term (1-17)-Trf (human, coupled to carrier protein human transferrin; C-terminal cysteine introduced to enable coupling).
T3 construct: Synthetic linear peptide chemically coupled to the carrier; also called CXCR2_aa1-17_TRF; N-terminal peptide aa1-17, Transferrin-coupled
Nature of the assay: ELISA, coated peptide-TRF, Fab. On the procedure:
as §2, §3

Assay [4] deals with T4, hu_CXCR2_N-term (1-17)-BSA (human; bovine, coupled to carrier protein BSA; C-terminal cysteine introduced to enable coupling).
T4 construct: Synthetic linear peptide chemically coupled to the carrier; also called CXCR2_aa1-17_BSA; CXCR2 aa1-17 BSA
T4 sequence (P02769 25-607 limits assumed): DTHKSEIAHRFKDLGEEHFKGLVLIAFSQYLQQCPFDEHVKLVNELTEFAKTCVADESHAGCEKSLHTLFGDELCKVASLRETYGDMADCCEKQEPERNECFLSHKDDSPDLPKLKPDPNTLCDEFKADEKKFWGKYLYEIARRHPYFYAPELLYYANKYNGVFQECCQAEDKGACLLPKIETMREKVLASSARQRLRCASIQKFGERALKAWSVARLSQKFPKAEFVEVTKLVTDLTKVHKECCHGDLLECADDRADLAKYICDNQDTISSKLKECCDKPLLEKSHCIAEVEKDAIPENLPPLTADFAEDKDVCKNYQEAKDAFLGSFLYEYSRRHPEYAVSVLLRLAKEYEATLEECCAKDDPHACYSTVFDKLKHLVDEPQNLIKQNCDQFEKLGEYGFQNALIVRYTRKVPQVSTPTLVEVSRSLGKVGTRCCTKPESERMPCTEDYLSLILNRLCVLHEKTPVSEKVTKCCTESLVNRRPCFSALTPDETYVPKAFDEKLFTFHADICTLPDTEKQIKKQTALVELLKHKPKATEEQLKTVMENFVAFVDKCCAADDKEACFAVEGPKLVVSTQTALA
As to the kind of experiment: ELISA, coated peptide-BSA, Fab. The procedure: as §2, §3

In assay [5] the target is T3, hu_CXCR2_N-term (1-17)-Trf. As to the kind of experiment: SPR (Biacore), peptide-TRF immobilized, Fab analyte, steady-state fit. On the procedure: (§4) Affinities (KD values) were determined using SPR (Biacore T200, GE Healthcare) using the following setup: The antigens (hu_CXCR2_N-term (1-17)-BSA, or hu_CXCR2_N-term (1-17)-Trf, respectively) were covalently coupled to a CM5 sensor chip using NHS/EDC chemistry. Antigens were diluted in 10 mM Acetate pH4.5 to a concentration of approx. 100 μg/mL. The final immobilization level was approx. 400 RU for the BSA-coupled peptide and 200 RU for the TRF-coupled peptide. HBS-EP pH7 was used as running buffer throughout the experiment at a flow rate of 30 μL/min. Fab fragments were used as samples (monomer portion at least 90% as determined by HP-SEC, Superdex 75 PC3.2/30 (GE Healthcare). Of each sample, a 2n serial dilution row from 31.25-1000 nM was prepared (6 concentrations) and injected, followed by a blank injection, which was later used for double referencing. Association of Fab samples was recorded for 240 s, and dissociation was monitored for 300 s. At the end of each cycle bound (Fab−) sample was removed from the sensor with one 30 s injection of MgCl2 (3M).
(§5) Most of the recorded binding curves deviated from the expected bimolecular binding model (1:1), but the sensorgrams seemed to reach equilibrium towards the late association phase. Therefore, the binding data (report point late association) was fitted to a steady state model. The Req vs. concentration plots/fits followed the assumed one-binding-site model, and the resulting KD were reported. EC50 values determined by ELISA were in the single digit nanomolar range on N-terminal CXCR2 peptides. […] Respective results of selected 6 Fabs are summarized in Table 1 (data of one representative experiments are shown).
(Surface plasmon resonance follows binding to a sensor surface in real time, without labels.)

The target in assay [6] is T5, N-Terminal Peptide aa1-17 (Transferrin- or BSA-Coupled) (human, also: coupled to carrier protein (BSA or transferrin), site not given here).
T5 peptide: MEDFNMESDSFEDFWKGC
As to the kind of experiment: initial screening, Fab; carrier of the peptide not stated.

In assay [7] the target is T1, human CXCR2. Nature of the assay: FACS, CXCR2 CHO Flp-In cells, Fab. The procedure: as §1, §3
On the technique in general: A flow cytometer gives signals particle by particle.

For assay [8], the target named is T4, hu_CXCR2_N-term (1-17)-BSA. Nature of the assay: SPR (Biacore), peptide-BSA immobilized, Fab analyte, steady-state fit. On the procedure: as §4, §5
Assay [9] has as its target T6, N-terminal peptide aa1-48, BSA-coupled (human; bovine, coupled to carrier protein BSA; C-terminal cysteine introduced to enable coupling).
T6 construct: also called CXCR2 aa1-48 BSA
Nature of the assay: ELISA, coated peptide-BSA, Fab. On the procedure: as §2

The target in assay [10] is T7, ECL3 peptide aa273-295, BSA-coupled (human; bovine, coupled to carrier protein BSA; C-terminal cysteine introduced to enable coupling).
T7 construct: also called CXCR2 aa273-295 BSA; peptides representing the extracellular domain 3
T7 sequence (P02769 25-607 limits assumed, chain 2 of 2, one chain of several): as the sequence (P02769 25-607 limits assumed) above
Nature of the assay: ELISA, coated peptide-BSA, Fab. On the procedure:
as §2

Assay [11] concerns the target T4, hu_CXCR2_N-term (1-17)-BSA. Nature of the assay: ELISA, coated peptide-BSA, Fab. The procedure:
as §2
The source holds these as a separate data set.

Assay [12] addresses T1, human CXCR2. As to the kind of experiment: FACS, CXCR2 CHO Flp-In cells, Fab. The procedure: as §1
The source holds these as a separate data set.

T3 sequence (P02787 20-698 limits assumed): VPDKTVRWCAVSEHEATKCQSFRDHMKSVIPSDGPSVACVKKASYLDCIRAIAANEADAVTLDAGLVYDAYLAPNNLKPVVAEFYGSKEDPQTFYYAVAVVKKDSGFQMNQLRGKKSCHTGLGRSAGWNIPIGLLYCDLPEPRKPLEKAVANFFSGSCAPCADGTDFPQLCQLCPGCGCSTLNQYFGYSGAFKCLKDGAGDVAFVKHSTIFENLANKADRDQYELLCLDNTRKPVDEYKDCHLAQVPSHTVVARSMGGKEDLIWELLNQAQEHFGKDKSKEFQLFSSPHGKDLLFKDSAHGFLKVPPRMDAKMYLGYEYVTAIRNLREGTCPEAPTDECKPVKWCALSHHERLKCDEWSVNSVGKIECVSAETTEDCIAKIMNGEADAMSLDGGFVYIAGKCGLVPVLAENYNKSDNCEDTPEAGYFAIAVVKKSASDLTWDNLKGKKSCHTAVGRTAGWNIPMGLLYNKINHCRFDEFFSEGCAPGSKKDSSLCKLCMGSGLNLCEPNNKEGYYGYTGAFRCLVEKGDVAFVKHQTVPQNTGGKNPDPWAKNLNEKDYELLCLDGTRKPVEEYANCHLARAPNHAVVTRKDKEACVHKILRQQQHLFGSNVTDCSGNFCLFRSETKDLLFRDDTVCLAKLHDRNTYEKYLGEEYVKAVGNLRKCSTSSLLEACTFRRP
T6 sequence (peptide, as listed by the source limits assumed, chain 1 of 2): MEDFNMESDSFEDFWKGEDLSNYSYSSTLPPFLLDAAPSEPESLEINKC
T6 sequence (P02769 25-607 limits assumed, chain 2 of 2): as the sequence (P02769 25-607 limits assumed) above

B1: CX2-Mab #3 (IgG1 format) (antibody, V domains shown)
VH: EVQLLESGGGLVQPGGSLRLSCAASGFTFSSYWMSWVRQAPGKGLEWVSVISYSGSETFYADSVKGRFTISRDNSKNTLYLQMNSLRAEDTAVYYCARGRVGYAFDYWGQGTLVTVSS
VL: DIVLTQPPSVSGAPGQRVTISCSGSSSNIGVNYVNWYQQLPGTAPKLLIYSNNQRPSGVPDRFSGSKSGTSASLAITGLQAEDEADYYCQSRASGFYSVVFGGGTKLTVLG
notes: Fab converted into IgG1 format, expressed in a human cell line, protein A purified; also called parental
The term EC50 denotes the concentration giving half of the maximal effect. The low end stands for an effect from little substance, the high end for a need for much substance. On to B1, for which, in assay [1], the EC50 turned out to be 0.2 nM.

B2: CX2-Mab #1 (Fab format) (Fab, V domains shown)
VH: QVQLVQSGAEVKKPGSSVKVSCKASGGTFSSYAISWVRQAPGQGLEWMGGIIPIVGEAKYAQKFQGRVTITADESTSTAYMELSSLRSEDTAVYYCARDSSGYDGYYAFAYWGQGTQVTVSS
VL: DIVLTQPPSVSGAPGQRGTISCSGSSSNIGSSSVNWYQQLPGTAPKLLIYRNNQRPSGVPDRFSGSKSGTSASLAITGLQAEDEADYYCGATDFSANQVVFGGGTKLTVLG
One may read the Kd as a measure of binding affinity in units of concentration. A high value points to weaker binding. For B2, in assay [2], the binding result is recorded as “no binding”. For the same molecule, the EC50 in [3] is 1 nM; in assay [4], 6.1 nM; in assay [7], 365 nM. For the same molecule, the values for the Kd in assay [5] and in assay [8] were 269 nM and 534 nM, respectively. In [6], this molecule returned a signal over background of no less than 5 fold.

B3: CX2-Mab #1 (IgG1 format) (antibody, V domains shown)
VH: QVQLVQSGAEVKKPGSSVKVSCKASGGTFSSYAISWVRQAPGQGLEWMGGIIPIVGEAKYAQKFQGRVTITADESTSTAYMELSSLRSEDTAVYYCARDSSGYDGYYAFAYWGQGTQVTVSS
VL: DIVLTQPPSVSGAPGQRGTISCSGSSSNIGSSSVNWYQQLPGTAPKLLIYRNNQRPSGVPDRFSGSKSGTSASLAITGLQAEDEADYYCGATDFSANQVVFGGGTKLTVLG
notes: as for B1
As for B3, in assay [1], the EC50 was found to be 0.4 nM.

B4: CX2-Mab #6 (IgG1 format) (antibody, V domains shown)
VH: EVQLLESGGGLVQPGGSLRLSCAASGFTFSSYTMSWVRQAPGKGLEWVSAIHSSGSSTYYADSVKGRFTISRDNSKNTLYLQMNSLRAEDTAVYYCARVPAYYGFDHWGQGTLVTVSS
VL: DIELTQPPSVSVSPGQTASITCSGDSLGAFYVHWYQQKPGQAPVLVIYRTNNRPSGIPERFSGSNSGNTATLTISGTQAEDEADYYCASYASRNRVFGGGTKLTVLG
notes: Fab converted into IgG1 format, expressed in a human cell line, protein A purified
In assay [1], B4 came in with an EC50 of 0.1 nM.

B5: CX2-Mab #5 (IgG1 format) (antibody, V domains shown)
VH: EVQLLESGGGLVQPGGSLRLSCAASGFTFNSNAMSWVRQAPGKGLEWVSFISYSGSHTYYADSVKGRFTISRDNSKNTLYLQMNSLRAEDTAVYYCARYTRFLSRPAFDPWGQGTLVTVSS
VL: DIVLTQPPSVSGAPGQRVTISCTGSSSNIGAGYDVHWYQQLPGTAPKLLIYYNSKRPSGVPDRFSGSKSGTSASLAITGLQAEDEADYYCGAYDRKMNSYVFGGGTKLTVLG
notes: as for B4
Take B5: in assay [1], a half-maximal response (EC50) required 17.7 nM.

B6: CX2-Mab #4 (IgG1 format) (antibody, V domains shown)
VH: EVQLLESGGGLVQPGGSLRLSCAASGFTFSSNGMSWVRQAPGKGLEWVSAISSSGSKTYYADSVKGRFTISRDNSKNTLYLQMNSLRAEDTAVYYCARGYGFDVWGQGTLVTVSS
VL: DIVLTQPPSVSGAPGQRVTISCSGSSSNIGVNIVNWYQQLPGTAPKLLIYSTSNRPSGVPDRFSGSKSGTSASLAITGLQAEDEADYYCATRDGISKSVVFGGGTKLTVLG
notes: as for B1
In turn, B6 yielded an EC50 in assay [1] of 0.1 nM.

B7: CX2-Mab #19 (Fab, V domains shown)
VH: EVQLVQSGAEVKKPGESLKISCKGSGYSFTSYWISWVRQMPGKGLEWMGIIDPANSYTRYSPSFQGQVTISADKSISTAYLQWSSLKASDTAMYYCARVERRPRYYGSNYYGMDVWGQGTLVTVSS
VL: DIVLTQPPSVSGAPGQRVTISCSGSSSNIGSNYVNWYQQLPGTAPKLLIYGNSNRPSGVPDRFSGSKSGTSASLAITGLQAEDEADYYCSVRDSEGRYVVFGGGTKLTVLG
Consider B7, for which the binding result in assay [9], in assay [10], in [11] and in assay [12] was “binds” in each case.

B8: CX2-Mab #2 (IgG1 format) (antibody, V domains shown)
VH: QVQLVQSGAEVKKPGASVKVSCKASGYTFSRYAMHWVRQAPGQGLEWMGVINPYNGNTRYAQKFQGRVTMTRDTSISTAYMELSRLRSEDTAVYYCARGSHIQAGAFDYWGQGTLVTVSS
VL: DIQMTQSPSSLSASVGDRVTITCRASQGINNRLNWYQQKPGKAPKLLIYDGSSLQSGVPSRFSGSGSGTDFTLTISSLQPEDFATYYCQQYIHFPVTFGQGTKVEIKR
notes: as for B4
For the molecule B8, in assay [1], the EC50 is greater than 667 nM.
